Source: the supplement of paper PMC10724198
± gives the standard deviation of the averaged measurements.

Assays:
Saccharomyces cerevisiae [1] = assay: protein stability index of tFT-peptide fusion (C-terminal peptide) (PSI (0-1 scale)); higher = more stable (slower turnover)
Method: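 MPS profiling in S. cerevisiae of the tFT-X12 degron library: putative degron peptides plus stable controls, 12 aa, fused to the C-terminus of a sfGFP-mCherry timer. Cells are FACS-sorted into 8 mCherry/sfGFP bins and deep-sequenced. PSI runs from 0 (unstable) to 1 (stable). Backgrounds are wild type, das1Δ and doa10Δ at 30 °C, and wild type, das1Δ, cdc34-1 and cdc53-1 at 37 °C; 2-3 technical replicates each.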

Saccharomyces cerevisiae [2] = assay: as above; details: genetic background: wild type; temperature: 30 C
[3] = genetic background: cdc34-1, temperature: 37 C
[4] = genetic background: cdc53-1, temperature: 37 C
[5] = genetic background: das1 deletion, temperature: 30 C
[6] = genetic background: das1 deletion, temperature: 37 C
[7] = genetic background: doa10 deletion, temperature: 30 C
[8] = genetic background: wild type, temperature: 30 C
[9] = genetic background: wild type, temperature: 37 C
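Note: PSI is a weighted mean of sequencing reads over stability bins, variants kept only with over 10 reads, mCherry proximal and sfGFP distal, peptide attached via GGGS linker.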

Sequence | protein stability index (Saccharomyces cerevisiae [1]; [3]) | protein stability index (Saccharomyces cerevisiae [1]; [4]) | protein stability index (Saccharomyces cerevisiae [1]; [5]) | protein stability index (Saccharomyces cerevisiae [1]; [6]) | protein stability index (Saccharomyces cerevisiae [1]; [7]) | protein stability index (Saccharomyces cerevisiae [1]; [8]) | protein stability index (Saccharomyces cerevisiae [1]; [9]) | protein stability index (Saccharomyces cerevisiae [2])
GCIMHLTIYVRD | 0.302 ± 0.03 | 0.3761 ± 0.0008 | 0.265 ± 0.026 | 0.439 ± 0.032 | 0.2235 ± 0.0014 | 0.26 ± 0.028 | 0.4088 ± 0.0016 | 0.322 ± 0.0096
TCFVKLLPFLVL | 0.549 ± 0.052 | 0.562 ± 0.011 | 0.456 ± 0.02 | 0.608 ± 0.024 | 0.4425 ± 0.0032 | 0.442 ± 0.013 | 0.5482 ± 0.0021 | 0.546 ± 0.067
VSYAVIVLVFKG | 0.211 ± 0.056 | 0.317 ± 0.051 | 0.234 ± 0.026 | 0.463 ± 0.018 | 0.2 ± 0.022 | 0.22 ± 0.023 | 0.339 ± 0.04 | 0.329 ± 0.037
LPPSVLPLPPSH | 0.647 ± 0.053 | 0.72 ± 0.013 | 0.658 ± 0.015 | 0.73 ± 0.024 | 0.6756 ± 0.0016 | 0.679 ± 0.033 | 0.752 ± 0.053 | 0.729 ± 0.021
FSIFFIIEFVGT | 0.179 ± 0.038 | 0.211 ± 0.0069 | 0.209 ± 0.015 | 0.374 ± 0.013 | 0.157 ± 0.011 | 0.187 ± 0.028 | 0.324 ± 0.022 | 0.242 ± 0.12
LVCFFLFSLFYL | 0.433 ± 0.02 | 0.479 ± 0.018 | 0.335 ± 0.028 | 0.5331 ± 0.0039 | 0.357 ± 0.015 | 0.358 ± 0.029 | 0.5098 ± 0.0013 | 0.386 ± 0.037
IDTSRAATLLPA | 0.675 ± 0.021 | 0.7136 ± 0.0016 | 0.606 ± 0.017 | 0.722 ± 0.011 | 0.611 ± 0.016 | 0.631 ± 0.028 | 0.7161 ± 0.0029 | 0.739 ± 0.012
FTYCIVFFFSRL | 0.428 ± 0.024 | 0.537 ± 0.038 | 0.383 ± 0.038 | 0.571 ± 0.045 | 0.379 ± 0.011 | 0.391 ± 0.03 | 0.494 ± 0.021 | 0.457 ± 0.014
LVGTRTIFCFLH | 0.618 ± 0.017 | 0.721 ± 0.0084 | 0.57 ± 0.018 | 0.741 ± 0.027 | 0.207 ± 0.0076 | 0.218 ± 0.026 | 0.401 ± 0.0054 | 0.3164 ± 0.002
LLLSLYFCFIFF | 0.207 ± 0.025 | 0.152 ± 0.004 | 0.245 ± 0.035 | 0.332 ± 0.018 | 0.337 ± 0.0086 | 0.226 ± 0.022 | 0.309 ± 0.033 | 0.329 ± 0.074
LEGRVLRIFCVT | 0.496 ± 0.0051 | 0.593 ± 0.03 | 0.49 ± 0.0052 | 0.651 ± 0.018 | 0.191 ± 0.011 | 0.212 ± 0.024 | 0.37 ± 0.048 | 0.263 ± 0.057
HCINYGRIQFCA | 0.596 ± 0.028 | 0.71 ± 0.05 | 0.596 ± 0.013 | 0.714 ± 0.024 | 0.245 ± 0.012 | 0.253 ± 0.034 | 0.532 ± 0.06 | 0.388 ± 0.051
KKRYSEIFKKNG | 0.694 ± 0.057 | 0.728 ± 0.025 | 0.637 ± 0.016 | 0.769 ± 0.037 | 0.211 ± 0.033 | 0.254 ± 0.023 | 0.56 ± 0.039 | 0.408 ± 0.05
LLHSLILLEWVF | 0.148 ± 0.01 | 0.146 ± 0.02 | 0.19 ± 0.032 | 0.267 ± 0.011 | 0.145 ± 0.013 | 0.182 ± 0.02 | 0.238 ± 0.0042 | 0.272 ± 0.021
HMSAISLIGALA | 0.595 ± 0.051 | 0.575 ± 0.04 | 0.436 ± 0.06 | 0.595 ± 0.011 | 0.392 ± 0.0086 | 0.434 ± 0.02 | 0.5673 ± 0.0013 | 0.519 ± 0.029
PRFRALLLIPVR | 0.0611 ± 0.016 | 0.158 ± 0.029 | 0.178 ± 0.046 | 0.281 ± 0.022 | 0.14 ± 0.026 | 0.17 ± 0.018 | 0.24 ± 0.033 | 0.27 ± 0.012
RALCPVPLLASS | 0.55 ± 0.0098 | 0.59 ± 0.034 | 0.435 ± 0.026 | 0.5981 ± 0.00094 | 0.427 ± 0.026 | 0.455 ± 0.018 | 0.553 ± 0.024 | 0.502 ± 0.1
RFQKTRIFRCLC | 0.455 ± 0.002 | 0.66 ± 0.015 | 0.57 ± 0.022 | 0.6796 ± 0.0058 | 0.0979 ± 0.0052 | 0.117 ± 0.015 | 0.137 ± 0.0058 | 0.18 ± 0.028
FIAVSLSVFLVF | 0.159 ± 0.015 | 0.286 ± 0.0034 | 0.189 ± 0.022 | 0.322 ± 0.012 | 0.1758 ± 0.00094 | 0.181 ± 0.024 | 0.287 ± 0.003 | 0.234 ± 0.011
